Results: the DeepSol protein solubility set

Test: soluble on expression in E. coli; label from the status in PepcDB or PDB records

Sequence	soluble on expression in E. coli
MGSDKIHHHHHHADDDTPVVTLGTSLTDSQRNGTLKTLTAPLNGGNYQTITVTGSDLVKYLNPSGDNFTTSSGVWSSAMIQKTSSGSGINVKILDYNGKNNITTITANQYKNAALTAGITDANIYVTSAVPIDGSGALAGVYAAYAKNGNALNQKQVNAAQDEMNTLSGITQDNKNKEGYSDAQLNNAVAGAKSEMAKQGQNISDSQIRDIVNNQININHLGNTINNNQKNQIVNLLIEIRDSGALKNGSFKSQASKLSSQIQNGAKNIFNKFNTQENRSWLQQLWDNVVNFFSHIFG	not soluble
MGSDKIHHHHHHMIERIYLAKPRGFCAGVVMAIQAVEKAAVREDKPVTVYHSIVHNHTVVERLSEGGRVHFVEDLDAVDALPDSGDTVIFSAHGISPAVRERARSLGLSTIDATCPLVTKVHTEAKKYAREGYTILLIGDSAGHQEVIGTRGEAPENTILVGVLGKTGPGLNDPHAVQVPDPERLVVLTQTTLSVDDTRKTVDILKARFPALVVPPSEDLCYATKNRQDAVKNIAPNVDAFLVLTSTHSSNGMRLLELAEAECGRAYRLETAADLTRLEQNGDLGGVRSVGITSAASTPDDLVQDVVAHFRALNPALEVIEEGEWENIEFREPKKIAPTQELPRTMQ	not soluble
LAVLMVLAVNFGTVTTFAAMSDEAESISVNKPVTDNLSSVNDVKYYEVELPAPGKVNLSFSHANLERTYVYWKVTMFDSVENEVLYFESTGTNTDGKSMSVYLDKGTYYVRVKSEGYWYSTTDYTLCVNYTENKGEYEIEPNYSKELATEISVNKPVIGNHRVKGDTDFYKFTISEPGKVDLSFNHANLERTYVYWKVTMFDSVENIVLYFESTGTNTTGKSMNAYLSEGTYYIRVTTDDYWHSTADYTLCVNYTENQGEYEIEPNNSQDNATLIEVDEPVTGNLRTSSDVDYYRFVMPDSGKVYLGFNHPNLERTYVYWKVSLYDANGNRLYQLNSRGTDTVGKSDEIKIGSGTYYVKVEYEGYWHSSADYSLTVNTVGGIPKVKVFLNGKRIRFDQPPIIQNGRTLVPLRAIFEAMNATVSWDDKTKTVTAKKGDTTIVMTIGNKTMKKNGVAIELDVPPQIVNGRTLVPARAVAESFGAKVDWDGSTRTVTITEGN	not soluble
MGSDKIHHHHHHGDDDDPVVPELNKLTKVSCYKDGASSPLFTADINYTSDGKISNINLGVDKLLFIYSDGKFSVTGIHSGEVIEEYTLSGNVITSKKISQENPYASNEIYVSDEYSYRYSGSNWVLTSWNARWPKEFGTGYEERSYPEYEKYTWENGNVVLYAQSLDSREMRYEYSVAEAPKNFPLRVIGSFSPVGFESVTPLNLLYGIQNRNLPIRAYTYTIPNQSEVKAEYKYTYTTVGDYITGMTIDENDGGTASSYKYTFEYNFAVK	not soluble
MKKITINDLMKWKQEGRKFATSTAYDASFAQLFESQEMPVLLVGDSLGMVLQGETDTLPVTVDDIAYHTRCVRKGSPNCLLMADMPFMSYATPEQACENAAKLVRAGANMVKIEGGDWLVDTVKMLTERAVPVCAHLGLTPQSVNIFGGYKVQGREQDKADRMVRDALALQEAGAQIVLLECVPAELANRITQILDVPVIGIGAGNGTDGQILVMHDMFGISANYMPKFSKNFLAETGDIRQAVAKYIEDVASGAFPDLAHTIALEHHHHHH	soluble
MKNTLLKLGVCVSLLGITPFVSTISSVQAERKVEHKVIKNETGTISISQLNKNVWVHTELGYFNGEAVPSNGLILNTSKGLVLVDSSWDDKLTKELIEMAEKKFKKSVTDVIITHAHADRIGGIKTLKERGIKAHSTTLTAELAKKNGYEEPLGDLQAITKLKFGNMKVETFYPGKGHTEDNIVVWLPQYNMLVGGCLVKSASAKDLGNITDAYVNEWSTSIENVLKRYENINFVVPGHGEVGDKGLLLHTLDLLK	not soluble
MTWLLFGAGNGVGGCLLQRAIECEQAVVLVLRNPEQAKHWREQGVTVVEGDACDPETVAEACRVAGPSAIVVSTMGGGTVNYQGHRTVIDGAEQAGIKRMLLVTSLGCGDSWPLLSPRARAAFGFAVREKSLAESWLQSSTLDHCIVRPGGLLDVVATHNAKLTQGAATLGLVSRSDVALAVDQLLQQPVFGNHIYNLIDPDLTMPAIPLEHHHHHH	not soluble
MTVFTPRTDCEVAVIGAGPFGLAAASALKGAGVDALTLGGAMSFWRDHMPRGMRLRSPWHATYIGHTKGPLSLDSYAKVLGISPREPLLLENFVDYGLWIQAQAVPDLDTRKVDRVEKANGGFRLALADGNAIKARRVVVATGLMNQQLIPAVFDGIPRELVSHASEHTGYEAFRGKRVAVIGRGQSACESAVLLKRNGAEVDLVCHGDIHWLGYRALSGKQGWSLRDFLSERLASPSRVGPFPISWLVEVPGVVHRFPEPARAGLNRRSLGAGATGWLKPDFDGIEIRAGSRIISASARDNGIELRFEKDFASFDHVVLGTGYRIDIAKLGLFAPAMLAAIARREGLPLLSAGFESSIPGLHFVGASAVGSFGPLMRFTAGTPFAARTVARFIQRAKDRRYTAALEHHHHHH	not soluble
MAHHHHHHMRRTGIRRVAPWVPPPRHDVKVTMPPPPGGEVGGSFGVSIGYSDRIACTPYWKRMALSNYALRMKENATRYPMSEHRPGEYDIRYLPKPYPCTIRNRPLLEVGEPRQIPSIQIPVIFLVNLYNEEKNSWFGRKYETVYVSRQFMREELMPQRYAIYATPEAYALLGLPVVDHGIHKEIPKTPREYEKLLERQKYDEERWKYSIEYLFRKYEAGPPELLDRAEDTWDGTEVLAVSSTAGAARHGEAVQRKGAIKHRKARKIKLF	not soluble
MGSDKIHHHHHHMTDQTAARACGIDFGTSNSTVGWLRPGHDTLLQLEDGKITLPSVVFFNYEEDHSRFGRAALAEYIDGFEGRLMRSLKSLLGSSLIDSQTEVQGKALPFRHLLKLFIQELKLRAEGAAGREFEQVVLGRPVYFVDDNPQADKLAQDTLADIARQVGFKEISFQLEPIAAAFDYESNIQKEELVLIVDIGGGTSDFTLIRLSPERRSHAERRDDILATGGVHIGGTDFDRQLSLHGVMPLFGFKTRLRNNAEMPSSQYFNLATWHTINFAYTRKAWMDLQDVHRDAAEPEKLDRLFKLIQERAGHWLAMEVEAAKIALSDRDSHRLALDAIERGLHCDLSRADFETSISALLDRVGGTVGKLLADSGLKAQDVDTVFFTGGSSGVPALRDGIRALLPNARHVEGNLFGSIGSGLAIEAKKRYG	not soluble
MELGQAMVTVAGIGCRKGAASDAIIAAVRAAERAFGVTVDYLATAPLKADEAGLAEAAKGLSLSLEIVAQERLEAVAAETMTFSQASLDHSGSPSVSEAAALAAAGAGARLVAPRLVVGDVTVAIAMTSDAPHGSRSAIEYGEQE	not soluble
GHMSRRSFKNRVLAFFKGYPSFYYPATLVAPVHSAVTSSIMYKVQFDDATMSTVNSNQIKRFFLKKGDVVQSTRLGKIKHTVVKTFRSTNEQLSLIAVDALNNDMVILAHGEIEVTVPISTIYVAPVNIRRFQGRDLSFSTLKDMKFEETSFL	soluble
MGSDKIHHHHHHMPKTISEQNLLRLIDTLVNEGKRVIGPKAAGTMTLYEPLATGEELNLGELPRRSAKETFFPLCETILTYERDREGVRVTDVDPGAIPETVLVAARPCDVAAAPVLDSVFSWDYQDEFYLSRRGKTTIIGLACARADDACFCTAVGLSTNDTKGSDLFLTTLTGGGYRCDVITDKGMALLAAHGGLFAEGDGTPAPLAEPALGKLDLEKIKQWLDNHFEDPLWEEIAERCAGCGACAFLCPACHCFDINDEGGEKKGARRKSWDACGFGKFTNHASGHNPRDVQPQRYRNRIMHKFKYYVDKFDQRLCTGCGRCIRACPVGIDIAEILSAIGTRDQGPGTGKD	not soluble
MDYEILFSDETMNYADAGTYCQSRGMALVSSAMRDSTMVKAILAFTEVKGHDYWVGADNLQDGAYNFLWNDGVSLPTDSDLWSPNEPSNPQSWQLCVQIWSKYNLLDDVGCGGARRVICEKELDD	soluble
MNRWEGLDEFVAVAETGQFTAAAERMGVSSSHISRQVARLEERLQTRLLYRSTRRVSLSEAGQTFLQHCQRLQDARDEALRAVSDLSAEPKGLLRMTCAVAYGERFIVPLVNAFMADYPQLRVDIELSNRQLDLLHEGFDLAIRLGRLSDSRLVATRLAPRVMYLCATPEYLRRHGTPQSPAELGQFNCLIGSSDLWSFLEDGRETQHRVQGNWRCNSGQAVLDAALRGFGLCQLPDYYVIEHLRSGRLASLLEGHQPPNTAVWALYPQQRHLSPKVRQLVDYLKEGLAQSHPGLAGEKNLR	not soluble
MADESYDALSRGNKSNLRNEVVDMKKKPFSILFMGIEDYATKGQKGRSDSLIVVTLDPKNKTMKMLSIPRDTRVQLAGDTTGSKTKINAAYSKGGKDETVETVENFLQIPIDKYVTVDFDGFKDVINEVGGIDVDVPFDFDEKSDVDESKRIYFKKGEMHLNGEEALAYARMRKQDKRGDFGRNDRQKQILNALIDRMSSASNIAKIDKIAEKASENVETNIRITEGLALQQIYSGFTSKKIDTLSITGSDLYLGPNNTYYFEPDATNLEKVRKTLQEHLDYTPLEHHHHHH	soluble
MGSDKIHHHHHHLVEKRRVMSNLETNQGRLAAIETFAERCPDCGSLLYRPKGLSKVTGKKMAGVCMNCGYKQPPTEPKNVTPDMEKEARKNRTVGYYLAYSVFSTDAIIAKDFNNFHTDGSLGQQQLKLFAVGLSNKICRNEVVHALIIGDTGVGKSHIANGILIDTQAKTGYRKTCLFIDWNALMQRLKSGMSANAQDVRMKNEKIMHEIGKADVVVIDDLGSERGSDFDRQTADDVFRMREDKATIVTTNLHGQDLNKRYGERTMSRMAKHGQGNSFGVKGILDQRKEALP	not soluble
GSHMSAEASARPLRVGSRVEVIGKGHRGTVAYVGATLFATGKWVGVILDEAKGKNDGTVQGRKYFTCDEGHGIFVRQSQIQVFEDGADTTSPETPDS	soluble
REINGATRWIPLGPLNFQPTELFKLAVILYLASLFTRREEVLRSMESLGWQSIWRGTANLIMSATNPQARRETLEMYGRFR	not soluble
MSLITDLFKRRIHQMEEKKKKNIGFNIIKSDPTDGHGGFGGGSLSLDNVSPVFVDVEAGDAHVDIGAMHARSTVEKGIKFLTNQEDVPNGKPYWLVWVTIDRKQEGPYYAGVTACFMTVDREIRRGYKLLPEHVNRLDKSIKRHIIVDHMDDKSKGILADFLKNHDMGMWERAEDQLKKDLASSEGHHHHHH	soluble
MGASKDAMDEEGNAAADLGLVARIRESFDSLTATEREAAQFILGHLTDVLVCNSVELSQLSGISQPTLSRLYRKLGYANAGEFRRDVRRVHRPGSPELSRHTQCDDLVADHLRRDEESLKRTFEGIDRAQLSSACQAMATAPHVAVVGYHSSYPVALHMREQLMRLRGNVDILPNPGQSIAEDLVDYAAGDVIVIIGVGRRLPFFSRLIDVMLERGLTVVVIGDISARNAVIGRNVAFFKVVLSSHVLTSFTAAFALIALMVDEVGKCLVDTEDEVHARIEGINDCFDALNELED	not soluble
MGSDKIHHHHHHMQDSPVVLKVSHVAKSFRLPTEQATGLKMAFLNWTKGIKGYTEQKVLRDIDFEVHRGDFFGVVGRNGSGKSTLLKIISQIYVPDQGSVDVYGKLVPFIELGVGFNPELTGRENVYLNGALLGFSHSEIDAMYDDIVEFAELEEFMDQKLKNYSSGMQVRLAFSVAIKAQGDILVLDEVLAVGDEAFQRKCDAFFKKVQADPNKTVILVTHSMDAVKKYCNKAILIRDGEIVVSGDKNQVADQYTLDNLKGNEPLPEKKKQNGEYAIGLNATVPELKIVPKSDLSTDGKHPFQFDVVYEYKDSGTHYVAVNLLDLKRGGIVYDSGSRTLVQTSSGKHRFALEMPIDMLNSGVYRLYASVRVDDGDSADSETKMVAFTNEANGCVFSINNPDHEDYALLNEKAMIIRKRK	not soluble
